# Source: publication PMC4928677
# Target: GST-Cks2 (Xenopus laevis Cks2α, wild type) (Xenopus laevis) (UniProt Q91879)
# Assay: pull-down
# UniProt Q91879, sequence (Q91879 whole entry): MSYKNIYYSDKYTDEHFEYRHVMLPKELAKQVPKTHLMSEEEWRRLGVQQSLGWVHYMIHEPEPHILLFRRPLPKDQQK
row,EC50,Substance
1,120 nM,Hyperphosphorylated Wee1A (Flag-Wee1A-WT phosphorylated in vitro by cyclin B1-Cdk1) (from UniProt Q8AYK6 1-571) (natural protein)
2,526 nM,Hypophosphorylated Wee1A (Flag-Wee1A-WT incubated with cyclin B1-Cdk1 without ATP) (from UniProt Q8AYK6 1-571) (natural protein)
